{"source": "the DeepSol protein solubility set", "data": [{"experiment": "soluble on expression in E. coli; label from the status in PepcDB or PDB records", "values": [{"sequence": "SSKAIPKQDIPEIAYERFTLPNGLTVIVHEDHKAPVIAVNVWYHIGSADEPARKTGFAHLFEHLMFSGSENHKASYFQPFEKIGATGMNGTTWFDRTNYFQTVPTTALDMALWMESDRMGHLLGAIGQKELDTQRGVVKNEKRQRENVPYGRVTQNILSNLFPANHPYQHSTIGSMEDLEAASLADVKSWFQAHYGAANATLVLAGDITLAEARDKAAKYFGDIPAGPPVA", "soluble on expression in E. coli": "not soluble"}, {"sequence": "SSLYRLFQSSKRPFASFSAPLVRFTNSRCVSAVLSRKETAPSSIYGNRVSRVSGFGALDIRSLNFSTKSSQINDAGSIDQTLMQSMELKIKEQLNAESVTVTDMSGDGRHVCINVVSSAFEGQSAVNRQRMVYKAIWEELQNVVHAVDQMTTKTPSEV", "soluble on expression in E. coli": "soluble"}, {"sequence": "SSNAKADQASSDAQTANAKADQASNDANAARSDAQAAKDDAARANQRADNAA", "soluble on expression in E. coli": "soluble"}, {"sequence": "SSQTGEKGKFPDAAGYVGFANLPNQVHRKSVKKGFEFTLMVVGESGLGKSTLINSLFLTDLYPERYIPGAAEKIERTVQIEASTVEIEERGVKLRLTVVDTPGYGDAINSQDCFKTIIQYIDNQFERYLHDESGLNRRHIVDNRVHCCFYFISPFGHGLKPLDVEFMKAIHSKVNIVPVIAKADTLTLKERDRLKRRILDEISEHGIRIYQLPDADSDEDEEFKDFVPNRCIWSSLQFYQMHIIAITFIDIMFVFKKAAHVISTTIIMVKLNIKCQ", "soluble on expression in E. coli": "soluble"}, {"sequence": "SSSNSEKEWHIVPVSKDYFSIPNDLLWSFNTTNKSINVYSKCISGKAVYSFNAGKFMGNFNVKEVDGCFMDAQKIAIDKLFSMLKDGVVLKGNKINDTILIEKDGEVKLKLIRGI", "soluble on expression in E. coli": "soluble"}, {"sequence": "SSTQYSILFKQEHAHEDAIWTAAWGRSEKDGSETIVTGSLDDLVKVWKWSDEKLELQWTLEGHQLGVVSVNISQNGAIAASSSLDAHIRLWDLETGKQIKSMDAGPVDAWTVAFSPDSKYIATGSHLGKVNIFGVESGKKEHSLDTRGKFILSIAYSPDGKYLASGAIDGIINIFDIATGKLLHTLEGHAMPIRSLTFSPDSQLLVTASDDGYIKIYDVQHANLAGTLSGHGSWVLSVAFSPDDTHFVSSSSDKSIKVWDTSSRSCVNTFFDHQDQVWSVKYNPTGSKIVSAGDDRAIHIYDCPM", "soluble on expression in E. coli": "soluble"}, {"sequence": "SSVNYAAGLSPYADKGICGLPETFDSPEELKTKVETLAQWIRESQYMVVHSGAGISTSTGIPDFRGPNGVWTMEERGETPHFNTTFEDARPSLTHMALLQMQRTGHLKYLISQNVDGLHVRSGFPRDRLSELHGNMFVEECEKCGKQYVRDTVVGVMGLKPTGRYCDVMRSRGLRSCRGKLISSILDWEDSLPDRDLNRADEASRRADLALTLGTSLQIKPSGDLPLLTKRTGGKLVIVNLQPTKHDKHAHLRIYGYVDDVMGQLMKLLGLDVPEWAGPTLCEDSGGDLDILPYGAWKKEVKIELKIEESNHTVSKKRKRKEQHAEEGYKNGVKVEEEMKEEGKESDSHVHTHT", "soluble on expression in E. coli": "soluble"}, {"sequence": "STARVICAGFGGQGVMSMGQLLTYAGMLEGKEVSWLPSYGPEMRGGTANCAVTVSNEPVGSPLITDDATAAILLNIPAFEKFKDDVIPGGKIIVNSSLIKEKVDRTDVDVYYIPANELAAELGNDKVANMIMLGAYLKVSDTVDIESVLEAFKKVFGPRKEKFVPLNREALQKGMDATC", "soluble on expression in E. coli": "not soluble"}, {"sequence": "STKFPTLKRLFGEAQAAWLVKESEQAVLEIDAFCKQHHIDAQLSLKGVYYTATNHVQAGSMQPVVDELSRLGVNSWRRCKEDELHANTGSPRHLEGFHSSVAASVQPALLARGLRRVALEMGIEIFENTPMTKLDFGQPATVSTPDAQIKAKQVVLALNAWMVEHFTQFKNSIVVVSSDMVITKPLGESLRKTGWQAGTSVLDSRIFVHYYRDTPDGRLMLGKGGNQFSFNNQVDVMFNKPTRYQNLLRKSFDKLFPSLKEAEFEYSWTGGSDRSTSGFPFFGKLNEQRNVFYGFGYSGNGVAQTRMGGKILSSMVLGLDNEWTRSGLAKGPLGHFPPEPFRWIGAMTVRNAVRRKEEAEDCGQKPFIWDKWLAKLAGPAGKADKLD", "soluble on expression in E. coli": "not soluble"}, {"sequence": "STLEIAGLVRKNLVQFGVGEKNGSVRWVMNALGVKDDWLLVPSHAYKFEKDYEMMEFYFNRGGTYYSISAGNVVIQSLDVGFQDVVLMKVPTIPKFRDITQHFIKKGDVPRALNRLATLVTTVNGTPMLISEGPLKMEEKATYVHKKNDGTTVDLTVDQAWRGKGEGLPGMCGGALVSSNQSIQNAILGIHVAGGNSILVAKLVTQEMFQNIDKKIESQ", "soluble on expression in E. coli": "soluble"}, {"sequence": "STSTFQTRRRRLKKVEEEENAATLQLGQEFQLKQINHQGEEEELIALNLSEARLVIKEALVERRRAFKRSQKKTREKELESIDVLLEQTTGGNNKDLKNTMQYLTNFSRFRDQETVGAVIQLLKSTGLHPFEVAQLGSLACDTADEAKTLIPSLNNKISDDELERILKELSNLETLY", "soluble on expression in E. coli": "soluble"}, {"sequence": "STVLIVSQEHQKIKTYINTVADRGVTEIPVKGGYSGTNQIMLMTTIAGYEFAKLQEAIAEIDETAFITVTPTSQASGRGFSLQKNHGRLDEDILMPM", "soluble on expression in E. coli": "not soluble"}, {"sequence": "SYSVGQVAGFAGVTVRTLHHYDDIGLLVPSERSHAGHRRYSDADLDRLQQILFYRELGFPLDEVAALLDDPAADPRAHLRRQHELLSARIGKLQKMAAAVEQAMEARS", "soluble on expression in E. coli": "soluble"}, {"sequence": "SYVQEHRLWGLMDKPHSAPCLMSLSLSFLICNKGRNAIRVQQSTDERMDAMLLWQCPTQGTRKNHESNSSLHHVPNWIFHSTIIPPNKGSKRCLRKVDWLLPRAGGVGGKRGVTADGDRVSF", "soluble on expression in E. coli": "soluble"}, {"sequence": "TARELLDADRGRDSMVAAAYHSGTLSGKTVTEAARQGDVFAIEVFDDFAEWMGRALSIVCDVLDPGQIVIGGGLSTSSDLFLEKATQHMAQQIVGAGYRPLPTVVCAELGGDAGMIGVSDLARRRV", "soluble on expression in E. coli": "not soluble"}, {"sequence": "TARKCLLEKVEVITGEEAESNVLQMQCKLFVFDKTSQSWVERGRGLLRLNDMASTDDGTLQSRLVMRTQGSLRLILNTKLWAQMQIDKASEKSIHITAMDTEDQGVKVFLISASSKDTGQLYAALHHRILALRSRVE", "soluble on expression in E. coli": "soluble"}, {"sequence": "TASIGAAAILGAPIMHDFCHISLSDLMTPWEVIEKRLRLAAEADFVICLYNPRSKGRSEHLSKAFKIMGEFKGGDTPVGVVKDVGREKEEKFVCTFENMDFEKVDMTTMVIIGNKSTY", "soluble on expression in E. coli": "not soluble"}, {"sequence": "TDKEEFALYCEAKNDKVRKRLGIKGGFYWTTAKKLSVAISRCITAMDDNDYDEDDFKKPVRVNLPVVDDLPPEGVFDTEFCNRYEKGGKDGITMTFIGPSPSVQDKPASTDNTNINGEAMTEIEESMLLPVSGQELPIRWLAQHGSEKPVTHVSRDELQALHIARAEELPAVTALAISHKTSLLDSL", "soluble on expression in E. coli": "not soluble"}, {"sequence": "TDPDFLIRLATNLKEEKSKRLEAEQKIEAQRPKVLFADAVSDTEGTILIRDLAKLIQQNGVDIGEKRLFEWLRQNGYLISRRGTDYNRPTQKSMELGLFKIKETAIMRSSGAHTAITAKVTGKGQLYFVNKFLEQSLV", "soluble on expression in E. coli": "not soluble"}, {"sequence": "TDQFGMIGLLTFIRAAETDPGMVHLALGSDLTTLGLNLNSPENLYPKFASPWASSPCRPQDIDFHVPSEYLTNIHIRDKLAAIKLGRYGEDLLFYLYYMNGGDVLQLLAAVELFNRDWRYHKEERVWITRAPGMEPTMKTNTYERGTYYFFDCLNWRKVAKEFHLEYDKLEERPHLPSTFNYNPAQQAF", "soluble on expression in E. coli": "soluble"}, {"sequence": "TEETNVLVLCAGGGTSGLLANALNKAAEEYGAPVKAAAGSYGAHREILDQYQLVILAPQVASNYEDMKAETDKLGIKLAKTEGAQYIGLTRDGKGALAFVEEQFKD", "soluble on expression in E. coli": "not soluble"}, {"sequence": "TELKPLLIELGTEELPVNALPNLSRAFFEGVLAGLERRGIVVDHGEAKSLSTPRRLAVLLTAVAVEQPKQYRELFGPYLNTAFDTEGKPTKALEGFAAKCGVNWRTLERIRDTKGERFVHRVVVPGERTDALLPGILTEAIAGMPIPKPMRWGAHEYLFARPVHWLVMLFGQDVVEAEIMGVKAGRISRGHRFLYDKPVSLSGPQNYIDVLQAAYVLVDPAARRARIVAEIEAVARQVGGVARITEDNVAQVVNLVEWPSAVLCSFERVFLEVPQEALIQTMEVNQKFFPVLDSLGKLTEKFIGIANIESNDVAEVAKGYERVIRPRFSDAKFFFNEDLKQGLKAMGERLRTVTYHAKLGTLADKVARVLVLAEAIAPQIGVDPLLARRVALLSKNDLQSRMVNEFPELQGVAGHHYALISGELPEVAMAIEDAYRPRFSGDEIARSPLGKVLGLAERLDTLACGFAVGMKPTGNKDPFGLRRNALGLARTIIESRFDLDLKVLLDQASDWVAFATTIEQERHAQESVKQSKKEAAVKHSVPQVSDEKSARIEELYDFIVERLRGYYADKGIPTTHFNAVAELKPVS", "soluble on expression in E. coli": "not soluble"}, {"sequence": "THANIQGLVKHVDYMAFSDQDTFLSVSNYAFDAFTFDFYASMLNAARLIIADEHTLLDTERLTDLILQENVNVMFATTALFNLLTDAGEDWMKGLRCILFGGERASVPHVRKALRIMGPGKLINCYGPTEGTVFATAHVVHDLPDSISSLPIGKPISN", "soluble on expression in E. coli": "not soluble"}, {"sequence": "TISQRPYRDRVIHLLALKAYKKPELLARLQKDGVNQKDKNSLGAILQQVANLNSKDLSYTLKDYVFKELQRDWPGYSEIDRRSLESVLSRKLN", "soluble on expression in E. coli": "soluble"}, {"sequence": "TIVDLEDNVLVIGFGRFSQIVCQTLLIRGISVSVIDRNIENIRAAAKFGFKVYYGDGIRLDVLRAAGIEKAKCVVLGINDTQRIEHIVSQMKEAYPNLPILTRTYDRKTTVSLIKQDVDFIVRETFESAITLSRATLMKLGID", "soluble on expression in E. coli": "not soluble"}, {"sequence": "TKDLPIHACSYCGIHDPACVVYCNTSKKWFCNGRGNTSGSHIVNHLVRAKCKEVTLHKDGPLGETVLECYNCGCRNVFLLGFIPAKADSVVVLLCRQPCASQSSLKDINWDSSQWQPLIQDRCFLSWLVKIPSEQEQLRARQITAQQINKLEELWKENPSATLEDLEKPGVDEEPQHVLLRYEDAYQYQNIFGPLVKLEADYDKKLKESQTQDNITVRWDLGLNKKRIAYFTLPKTDSDMRLMQGDEICLRYKGDLAPLWKGIGHVIKVPDNYGDEIAIELRSSVGAPVEVTHNFQVDFVWKSTSFDRMQSALKTFAVDETSVSGYIYHKLLGHEVEDVIIKCQLPKRFTAQGLPDLNHSQVYAVKTVLQRPLSLIQGPPGTGKTVTSATIVYHLARQGNGPVLVCAPSNIAVDQLTEKIHQTGLKVVRLCAKSREAIDSPVSFLALHNQIRNMDSMPELQKLQQLKDETGELSSADEKRYRALKRTAERELLMNADVICCTCVGAGDPRLAKMQFRSILIDESTQATEPECMVPVVLGAKQLILVGDHCQLGPVVMCKKAAKAGLSQSLFERLVVLGIRPIRLQVQYRMHPALSAFPSNIFYEGSLQNGVTAADRVKKGFDFQWPQPDKPMFFYVTQGQEEIASSGTSYLNRTEAANVEKITTKLLKAGAKPDQIGIITPYEGQRSYLVQYMQFSGSLHTKLYQEVEIASVDAFQGREKDFIILSCVRANEHQGIGFLNDPRRLNVALTRARYGVIIVGNPKALSKQPLWNHLLNYYKEQKVLVEGPLNNLRESLMQFS", "soluble on expression in E. coli": "soluble"}, {"sequence": "TKEHRAAARKIAGESFVLLKNEGLSPTLAPVLPLSPTGTIAVIGPLANTRSNMPGTWSVAAVLDKSPSLVEGLTEWVGNQGKILYAKGSNLIGDAAYEERATMFGRSLNRDNRTDQQLLDEALKIASQADVIVAALGESSEMSGESSSRTNLNLPDVQHTLLEALLKTGKPVVLVLFTGRPLVLNWEQEHVPAILNVWFGGSEAGPAIGDVLFGAVNPGGKLTMTFPKSVGQIPLYYAHKNTGRPLKEGKWFEKFRSNYLDVDNDALYPFGYGLSYTTF", "soluble on expression in E. coli": "not soluble"}]}]}
